In paper PMC6479007, “Phycobilisomes Harbor FNRL in Cyanobacteria” (mBio, 2019):

B1: ferredoxin-NADP+ oxidoreductase, large isoform (FNRL) (enzyme, UniProt Q55318 1-413, looked up)
chain: MYSPGYVATSSRQSDAGNRLFVYEVIGLSQSTMTDGLDYPIRRSGSTFITVPLKRMNQEMRRITRMGGKIVSIKPLEGDSPLPHTEGIAKPSQSEGSGSEAVANPAPESNKTMTTTPKEKKADDIPVNIYRPKTPYIGKVLENYPLVREGAIGTVQHLTFDLSAGDLRYLEGQSIGIIPPGEDDKGKPHKLRLYSIASTRHGDFGDDKTVSLCVRQLEYQNEAGETVQGVCSTYLCNIKEGDDIAITGPVGKEMLLPPDEDANIVMLATGTGIAPFRAFLWRMFKEQHEDYKFKGLAWLIFGIPKSENILYKDDLEKMAAEFPDNFRLTYAISREQQNAEGGRMYIQHRVAENAEELWNLMQNPKTHTYMCGLKGMEPGIDEAFTALAEQNGKEWTTFQREMKKEHRWHVETY
modifications: acetylation on the N terminus in a part of the molecules (6% in CpcG-PBS, 12% in CpcL-PBS)
notes: ferredoxin-NADP+ oxidoreductase, large isoform FNRL, Synechocystis sp; PCC 6803, slr1643; The small FNR isoform of the same gene is not meant; also called large FNR; Fd-NADP+ oxidoreductase; source: endogenous, Synechocystis 6803 wild-type and ΔAB cells; isolated with the phycobilisomes on a sucrose gradient

Legend:
[1] = target: B1; assay: cross-linking; isolated CpcG-PBS and CpcL-PBS (partners co-purified in the native complex), 0.1 uM in 0.2 M K-phosphate, 1:1 BS3-H12/D12, 10 min in the dark at room temperature, cross-linker/PBS 10:1, 50:1 and 100:1; LysC and trypsin digestion, LC-MS/MS, ICC-CLASS and pLink; details: both partners purified
[2] = target: T1, CpcL-PBS (CpcL-type phycobilisome, without allophycocyanin) (Synechocystis sp. strain PCC 6803 …, UniProt Q54715 1-162; Q54714 1-172; P73203 1-291; P73204 1-273; P73202 1-83; P74625 …); assay: co-sedimentation; step-gradient sucrose density ultracentrifugation (370,000 x g overnight) of broken cells in 0.8 M K-phosphate pH 7.5 after 2% Triton X-100; blue bands analysed by SDS-PAGE (CBB R-250) and by trypsin digestion with LC-MS/MS label-free quantification (PEAKS; Protein Metrics); details: partners not purified
T1 construct: phycocyanin alpha subunit CpcA, Synechocystis sp; PCC 6803; phycocyanin beta subunit CpcB, Synechocystis sp; rod linker protein CpcC1, Synechocystis sp; rod linker protein CpcC2, Synechocystis sp; rod-capping linker CpcD, Synechocystis sp; PCC 6803, ssl3093; CpcL (formerly CpcG2), Synechocystis sp; PCC 6803, sll1471; the first methionine is removed posttranslationally, threonine is the first …

Row | Binder | binding result [1] | fold higher FNRL content than in CpcG-PBS, normalised to CpcC1 [2] [fold] | ratio of FNRL content, CpcL-PBS to CpcG-PBS (manual quantification, Protein Metrics) [2] | ratio of FNRL content, CpcL-PBS/CpcG-PBS (PEAKS label-free quantification) [2]
1 | CpcA (phycocyanin alpha subunit) (natural protein, phycocyanin alpha subunit CpcA, Synechocystis sp; PCC 6803; cross-linked through its N-terminal M1; In the assay it stood inside the assembled phycobilisome; also called PC alpha subunit; source: endogenous, Synechocystis 6803 cells; in isolated phycobilisomes) not shown | binds |  |  | 
2 | CpcB (phycocyanin beta subunit) (natural protein, UniProt Q54714 1-172, looked up, phycocyanin beta subunit CpcB, Synechocystis sp; PCC 6803; N-terminal peptide 1MFDVFTR found cross-linked through the primary amine of M1; In the assay it stood inside the assembled phycobilisome; also called PC beta subunit; source: endogenous, Synechocystis 6803 wild-type and ΔAB cells; in isolated CpcG-PBS and CpcL-PBS) MFDVFTRVVSQADARGEYLSGSQLDALSATVAEGNKRIDSVNRITGNASAIVSNAARALFAEQPQLIQPGGNAYTSRRMAACLRDMEIILRYVTYATFTGDASVLEDRCLNGLRETYVALGVPGASVAAGVQKMKEAALDIVNDPNGITRGDCSAIVAEIAGYFDRAAAAVA | binds |  |  | 
3 | B1 |  | 2.4 | 1.9 | 1.99
